The values that follow come from KR20240034671A (dated 2024).

The target in this assay is T1, human PTK7-Ig3-4-His (human, UniProt Q13308 221-409, limits assumed).
T1 construct: domain: Ig3-4; Made from the hPTK7-Ig1-4-His construct by DpnI-mediated deletion mutagenesis; expressed in HEK293 cells; also called hPTK7-Ig3-4-His; STK7-lg3-4-His [sic]
T1 sequence: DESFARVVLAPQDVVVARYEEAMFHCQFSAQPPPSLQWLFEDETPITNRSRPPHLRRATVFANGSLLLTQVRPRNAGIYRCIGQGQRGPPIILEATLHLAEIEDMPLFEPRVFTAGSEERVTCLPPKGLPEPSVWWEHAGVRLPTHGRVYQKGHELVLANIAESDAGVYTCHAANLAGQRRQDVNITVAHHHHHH
The assay can be described thus: Ni-NTA pull-down of His-tagged construct incubated with mAb at 1:1 molar ratio, western blot.

B1: anti-PTK7 mAb-52 (antibody, V domains shown)
VH: EVQLQQSGAELVKPGASVKLSCTASGFNIEDTYIHWVKQRPEQGLEWIGRIDPANGNDKYDPKFQGKATITADTSSNTAYLQLSSLTSEDTAVYYCARGDANYGSYWGQGTLVTVSA
VL: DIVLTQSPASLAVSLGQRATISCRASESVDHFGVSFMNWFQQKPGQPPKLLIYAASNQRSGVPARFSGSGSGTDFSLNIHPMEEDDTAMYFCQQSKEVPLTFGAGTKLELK
notes: Mouse monoclonal antibody from a hybridoma raised against purified human sPTK7, purified from ascites
Turning to B1, the binding result is listed as “no binding”.
